KM of the 70S ribosome-stimulated multiple turnover GTPase activity (0.01 uM protein, 100 uM GTP, 0 to 8 uM 70S) data for four substances are collected here from publication PMC4339808.

This experiment addresses 70S ribosome (vacant) (E. coli MRE600).

As for “EF4 ΔA494 (from UniProt P60785 1-494) (domain or fragment)”, the KM of the 70S ribosome-stimulated multiple turnover GTPase activity (0.01 uM protein, 100 uM GTP, 0 to 8 uM 70S) stood at 36 µM.

For “EF4 ΔG555 (from UniProt P60785 1-555) (domain or fragment)”, the KM of the 70S ribosome-stimulated multiple turnover GTPase activity (0.01 uM protein, 100 uM GTP, 0 to 8 uM 70S) turned out to be 7 µM.

As to “EF4 ΔP520 (from UniProt P60785 1-520) (domain or fragment)”, the KM of the 70S ribosome-stimulated multiple turnover GTPase activity (0.01 uM protein, 100 uM GTP, 0 to 8 uM 70S) worked out at 10 µM.

On to “Elongation Factor 4 (EF4/LepA), wild type (from UniProt P60785 1-599) (enzyme)”, for which the KM of the 70S ribosome-stimulated multiple turnover GTPase activity (0.01 uM protein, 100 uM GTP, 0 to 8 uM 70S) came to 0.32 µM.
